# Changes are numbered by the printed parent chain.
# T1: ASIC1a (Homo sapiens, UniProt P78348)
# T1 construct: expressed in transfected cells
# T1 sequence (P78348 1-528): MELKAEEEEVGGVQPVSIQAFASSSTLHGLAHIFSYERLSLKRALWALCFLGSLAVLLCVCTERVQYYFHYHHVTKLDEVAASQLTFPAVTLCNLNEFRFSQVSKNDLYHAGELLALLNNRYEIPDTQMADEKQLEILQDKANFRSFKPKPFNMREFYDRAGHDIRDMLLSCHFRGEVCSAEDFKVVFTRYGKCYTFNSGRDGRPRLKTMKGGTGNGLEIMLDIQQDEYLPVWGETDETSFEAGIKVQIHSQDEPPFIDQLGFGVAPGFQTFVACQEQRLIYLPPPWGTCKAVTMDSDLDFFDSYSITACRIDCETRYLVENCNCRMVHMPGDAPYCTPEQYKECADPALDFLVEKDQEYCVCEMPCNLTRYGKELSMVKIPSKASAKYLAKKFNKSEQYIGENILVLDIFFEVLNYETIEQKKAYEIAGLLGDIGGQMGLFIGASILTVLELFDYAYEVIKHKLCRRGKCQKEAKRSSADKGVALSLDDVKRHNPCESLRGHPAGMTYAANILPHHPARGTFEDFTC
# T2: human ASIC3a (hASIC3a-eYFP) (Homo sapiens, UniProt Q9UHC3)
# T2 construct: expressed in transfected cells; host or cells: CHO-K1 (transient)
# T2 sequence (Q9UHC3 1-531): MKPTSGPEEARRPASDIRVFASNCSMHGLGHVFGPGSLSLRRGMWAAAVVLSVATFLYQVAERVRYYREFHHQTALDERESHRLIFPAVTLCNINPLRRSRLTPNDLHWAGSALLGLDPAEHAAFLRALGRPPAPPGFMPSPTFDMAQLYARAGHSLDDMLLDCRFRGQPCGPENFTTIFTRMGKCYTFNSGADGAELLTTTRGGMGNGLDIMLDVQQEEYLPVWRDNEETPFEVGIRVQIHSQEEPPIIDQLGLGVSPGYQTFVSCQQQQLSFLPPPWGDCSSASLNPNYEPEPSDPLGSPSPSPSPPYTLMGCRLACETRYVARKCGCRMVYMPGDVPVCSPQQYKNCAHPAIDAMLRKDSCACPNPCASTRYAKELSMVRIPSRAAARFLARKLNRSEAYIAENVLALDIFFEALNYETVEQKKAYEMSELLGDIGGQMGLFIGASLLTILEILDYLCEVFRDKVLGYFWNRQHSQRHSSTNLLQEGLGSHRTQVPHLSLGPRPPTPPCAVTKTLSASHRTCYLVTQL
# T3: human ASIC2a (hASIC2a-eYFP) (Homo sapiens, UniProt Q16515)
# T3 construct: expressed in transfected cells; host or cells: CHO-K1 (transient)
# T3 sequence (Q16515 1-512): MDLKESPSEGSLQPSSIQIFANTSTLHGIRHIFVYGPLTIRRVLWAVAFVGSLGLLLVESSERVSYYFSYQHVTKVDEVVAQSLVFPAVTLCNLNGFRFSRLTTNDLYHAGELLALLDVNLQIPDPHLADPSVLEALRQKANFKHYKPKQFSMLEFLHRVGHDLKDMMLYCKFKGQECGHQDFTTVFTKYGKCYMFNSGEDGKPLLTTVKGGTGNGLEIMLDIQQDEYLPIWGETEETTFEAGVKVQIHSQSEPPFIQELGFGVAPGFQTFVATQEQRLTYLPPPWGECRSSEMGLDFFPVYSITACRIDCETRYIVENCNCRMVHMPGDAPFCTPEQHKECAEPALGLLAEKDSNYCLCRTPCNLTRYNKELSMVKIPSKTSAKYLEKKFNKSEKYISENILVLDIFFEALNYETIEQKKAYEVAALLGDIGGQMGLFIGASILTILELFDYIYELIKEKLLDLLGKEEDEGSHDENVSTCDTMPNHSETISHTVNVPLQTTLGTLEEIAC
# T4: human ASIC1b (hASIC1b-eYFP) (Homo sapiens, UniProt P78348)
# T4 construct: expressed in transfected cells; host or cells: CHO-K1 (transient)
# T4 sequence (P78348 1-562 isoform P78348-3): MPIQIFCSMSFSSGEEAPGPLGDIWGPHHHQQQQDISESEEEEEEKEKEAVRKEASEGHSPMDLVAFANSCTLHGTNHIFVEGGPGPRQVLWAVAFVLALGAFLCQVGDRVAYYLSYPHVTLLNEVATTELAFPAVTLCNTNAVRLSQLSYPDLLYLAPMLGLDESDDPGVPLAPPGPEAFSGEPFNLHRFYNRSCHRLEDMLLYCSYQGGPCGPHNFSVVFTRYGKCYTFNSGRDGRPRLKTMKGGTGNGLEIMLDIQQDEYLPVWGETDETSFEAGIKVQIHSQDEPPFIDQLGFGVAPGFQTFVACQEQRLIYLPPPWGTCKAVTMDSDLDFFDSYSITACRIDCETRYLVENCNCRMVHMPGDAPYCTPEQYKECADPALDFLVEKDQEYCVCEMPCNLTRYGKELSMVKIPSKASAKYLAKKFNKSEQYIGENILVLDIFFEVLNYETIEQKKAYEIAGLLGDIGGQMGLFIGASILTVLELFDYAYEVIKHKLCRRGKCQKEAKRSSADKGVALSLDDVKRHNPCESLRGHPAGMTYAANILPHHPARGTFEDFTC
# B1: ASC06-IgG1: parental (WT) ASIC1a-specific antagonist antibody; VL SEQ ID NO: 2, VH SEQ ID NO: 7, VH-CDR3 DSFYGYSKGD (antibody, V domains shown)
# VH: QVQLQQSGGGLVQPGGSLRLSCAASGFTFSSYAMSWVRQAPGKGLEWVSAISGSGGSTYYADSVKGRFTISRDNSKNTLYLQMNSLRAEDTAVYYCAKDSFYGYSKGDWGQGTLVTVSS
# VL: QSALTQPASVSGSPGQSITISCTGTSSDVGAYNYVSWYQQQPGKAPKLMIYGVSNRPSGVSNRFSGSKSGNAASLTISGLQAEDEADYYCSSYTSSSTYVFGTGTKLTVLG
# modifications: IgG1 constant regions; Amino acid sequence VH of ASC06; Amino acid sequence VL of ASC06
# B2: ASC06-01-IgG1: affinity-matured ASC06 derivative, VH-CDR3 DSYFGYSKGD (SEQ ID NO: 11) (antibody, V domains shown)
# VH: B1 VH with F101Y, Y102F
# VL: B1 VL
# B3: ASC06-02-IgG1: affinity-matured ASC06 derivative, VH-CDR3 DSFFGRAKGS (SEQ ID NO: 13) (antibody, V domains shown)
# VH: B1 VH with Y102F, Y104R, S105A, D108S
# VL: B1 VL
# B4: ASC06-04-IgG1: affinity-matured ASC06 derivative, VH-CDR3 DSFYGRAKGV (SEQ ID NO: 17) (antibody, V domains shown)
# VH: B1 VH with Y104R, S105A, D108V
# VL: B1 VL
# B5: ASC06-03-IgG1: affinity-matured ASC06 derivative, VH-CDR3 DSFYGRAKGS (SEQ ID NO: 15) (antibody, V domains shown)
# VH: B1 VH with Y104R, S105A, D108S
# VL: B1 VL
# Biological target: T1, ASIC1a
# Test: FLIPR-based assay of ASIC1a-mediated calcium influx
# Assay type: cell-based
# Details: increasing doses, pH 6
# Protocol: The calcium influx of the ASIC1a channel was measured using a Fluorescence Imaging Plate Reader (FLIPR) instrument by measuring the fluorescent signal generated by the intracellular calcium indicator dye Calcium 5 (Molecular Devices) in a stable cell line expressing hASIC1a-m Cherry fusion.
# The inhibition to calcium influx the affinity-matured ASC06-IgG1 derivative antibodies was also measured using the FLIPR-based assay. Using these assays, the IC50 values were calculated based on the maximal fluorescent intensity of the intracellular calcium indicator dye.
row,Molecule,inhibition of calcium influx
1,B1,dose-dependent inhibition

# Biological target: T2, human ASIC3a (hASIC3a-eYFP)
# Test: FACS-based binding assay, transiently transfected CHO-K1 cells (isotype selectivity)
# Details: not given
# Text: (§1) To examine the ASIC isotype selectivity of ASC06-IgG1 affinity-matured antibodies, plasmids encoding fusion proteins of eYFP with isoforms of […] were constructed. These plasmids included those encoding human ASIC1b (hASIC1b-eYFP), human ASIC2a (hASIC2a-eYFP), and human ASIC3a (hASIC3a-eYFP). CHO-K1 cells were transiently transfected with these plasmids and used in a FACS-based binding assay disclosed herein. Binding of ASC06-IgG1 to CHO-K1 cells expressing human ASIC1a-eYFP (hASIC1a-eYFP) was used as a positive control (data not shown and FIG. 2), and an isotype control was used as a negative control for binding (NC).
row,Molecule,binding to the hASIC3a isoform
1,B2,no detectable binding
2,B3,no detectable binding
3,B1,no detectable binding
4,B4,no detectable binding
5,B5,no detectable binding

# Biological target: T3, human ASIC2a (hASIC2a-eYFP)
# Test: as above
# Details: not given
# Text: as §1
row,Molecule,binding to the hASIC2a isoform
1,B2,no detectable binding
2,B3,no detectable binding
3,B1,no detectable binding
4,B4,no detectable binding
5,B5,no detectable binding

# Biological target: T4, human ASIC1b (hASIC1b-eYFP)
# Test: as above
# Details: not given
# Text: as §1
row,Molecule,binding to the hASIC1b isoform
1,B2,no detectable binding
2,B3,no detectable binding
3,B1,no detectable binding
4,B4,no detectable binding
5,B5,no detectable binding

# Source: US20230174642A1, “AFFINITY-MATURATED ANTI-ASIC1a ANTIBODIES” (SHANGHAITECH UNIVERSITY, priority 2019, published 2023)
